B1: PhLOX2 (Pyropia haitanensis) (protein)
chain: MAHTGTLGGSGCGQPLVAALKAHRTVVDGTIDAPVEAVWAKLRDFGGWPAWWPAMGATAVTPPGPPAVGQERAFTANGRSYVEALTWLDEGAHLLEYRLVSADPPLLDAGARTTFEAVPAGARSTRLTVECAFQPAYNVDAGVIRGGQTAAYESIMEGLQHALVEGPPLRPLRLTVTKNELRREVTAGHLLLTMGGVVLHRLRLTGAGTPVSADAVTVQLSRADAELRLELLDAKDTPVAAGSVAVGALTTPPVTHGVVLSNPHGDPVGTYTVSVVNAPPSSTVEAATALLFSLGKSLAEQLLQTVFFMGHDDGRWAYGEYTAADGTALTMPKYCAVLPPSQAIRPERLGQLFARNAEFLYAQAELLKLLVDTNPPGLEELPQAVRDKLAKEAALQKKIKERVTHEPSPFRLTFGGDHPAPERVIETWRDDEEQAAQMIRGINPMKLRRVTDAAAELPPAFHGLRDDAGRDVAALAAANALFYADYAELMVGELDEETGAYHHQAESAVLDSTVGGVKYWYAPRLVVYKTLAGKLSFLGFTLTRRGDAPGDDEMYTAAGTPPVRYTLAKIHLTCADNQVHQFVSHLGMTHLLAEPFIVAAHNVLPPSHIVSALLAVHFQDTIGINFLARQTLVSTVAPLTDATFSVGTGHALSIFAAAYDGWDFLGDNFVGALAKRGFTADAAADGLHDFYYREDGFRVWNALTRYVSTVLHGHYGAGTAADDAVAADPVLAAWCAEMRDPAAAGVASFPAAFTTVGALVEAVVSIIFLCSAQHAAVNFPQRDYVAYVPNRPDSVRLPMPPRPAAGADNDEAVVGATLPDVAVSVFQTLFAHLLTTPSDAPVSSYAALKEDHPAAWGAFTADLAQLQRDIEARNAALVAANEAPYPYLAPENMPLSIDI
notes: monomer by size exclusion

Columns and labels:
PhLOX2 = target: T1, PhLOX2 (Pyropia haitanensis, UniProt R9UEL2); assay: UV absorbance of conjugated diene at […] nm, Lineweaver-Burk; assay type: biochemical; conditions: pH 8.0, 20°C, 12 μM enzyme, substrate 20-200 μM; O2 co-substrate
T1 construct: gene lox2; monomer by size exclusion

purified protein [1] = substrate: CC/C=C\C/C=C\C/C=C\C/C=C\C/C=C\C/C=C\CCC(=O)O; assay: purified protein; assay type: biochemical, Pyropia haitanensis; conditions: pH 8.0, 20°C, 12 μM enzyme, substrate 20-200 μM, O2 co-substrate
purified protein [2] = substrate: CC/C=C\C/C=C\C/C=C\C/C=C\C/C=C\CCCC(=O)O; assay: purified protein; assay type: biochemical, Pyropia haitanensis; conditions: pH 8.0, 20°C, 12 μM enzyme, substrate 20-200 μM, O2 co-substrate
purified protein [3] = substrate: CCCCC/C=C\C/C=C\C/C=C\C/C=C\CCCC(=O)O; assay: purified protein; assay type: biochemical, Pyropia haitanensis; conditions: pH 8.0, 20°C, 12 μM enzyme, substrate 20-200 μM, O2 co-substrate

Molecule	Km (PhLOX2)	Km (purified protein [1])	kcat (purified protein [1])	kcat/Km (purified protein [1])	Km (purified protein [2])	kcat (purified protein [2])	kcat/Km (purified protein [2])	Km (purified protein [3])	kcat (purified protein [3])	kcat/Km (purified protein [3])
CCCCC/C=C\C/C=C\C/C=C\CCCCC(=O)O [GLA]	151 µM									
B1		91.59 µM	12.6 s⁻¹	138000 M⁻¹ s⁻¹	54.09 µM	62.5 s⁻¹	1.16e+06 M⁻¹ s⁻¹	114.17 µM	47.5 s⁻¹	416000 M⁻¹ s⁻¹

Reference: PMC4319731, “A Lipoxygenase from Red Alga Pyropia haitanensis, a Unique Enzyme Catalyzing the Free Radical Reactions of Polyunsaturated Fatty Acids with Triple Ethylenic Bonds” (PLoS ONE, 2015)
